From US20060251734A1

Tests used:
[1] = test system: T1, mutated cdc2 peptide with Phe-15 substituted for Tyr-15 (IEKIGEGTFGVVYK)
T1 sequence: IEKIGEGTFGVVYK

[2] = target: cdc2 peptide (amino acids 7 to 20; …); assay: cell-based or functional assay

Q: With p56/p53^lyn tyrosine kinase as the substance, how does the “phosphorylation of the mutated cdc2 peptide (Tyr-15 to Phe-15) by anti-Lyn immune complexes” value [1] read?
A: there was little phosphorylation of the mutated cdc2 peptide with anti-Lyn complexes from control or MMC-treated cells

Q: “p56/p53^lyn tyrosine kinase (from UniProt P07948 2-512) (enzyme)” was tested. Which phosphorylation of the cdc2 peptide by anti-Lyn immune complexes from MMC-treated cells against control cells [2] did it give?
A: 2 fold
